Laboratory results from patent US20150218227.

Assays:
[1] = target: PPR10 NS variant motifs 6 and 7 (position 6, 1') changed to N6,S1' (Zea mays) (UniProt B8Y6I0); experiment: EMSA; conditions: RNA 15 pM
[2] = target: PPR10 ND variant motifs 6 and 7 (position 6, 1') changed to N6,D1' (Zea mays) (UniProt B8Y6I0); experiment: EMSA; conditions: RNA 15 pM

| Substance | Kd [1] [nM] | Kd [2] [nM] |
| --- | --- | --- |
| atpH CC-substituted RNA | 9 | 17 |
| atpH UU-substituted RNA | 20 | 3 |
